Source: the nanobody polyreactivity screen of Harvey et al. (2022)

Test: yeast display, Sf9 membrane polyspecificity reagent, FACS + sequencing; frameworks hold sequencing errors
In short: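 Genes from sorted yeast were amplified by colony PCR, read by MiSeq 2 × 250 sequencing and filtered on CDR length. These cells carried a synthetic nanobody library in Saccharomyces cerevisiae BJ5465 and were sorted by FACS into low and high (top ~1%) gates on anti-HA and streptavidin fluorescence. Polyreactivity is labelled according to the gate of origin.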

QVQLVESGGGLVQAGGSLRLSCAASGRIFSFNAMGWYRQAPGKERELVAGITYGGNTYYADSVKGRFTISRDNAKNTVYLQMNSLKPEDPAVYYCAAVRGGRHDYWGQGTQVTVSS
polyreactivity (PSR sort gate): low polyreactivity

QVQLVESGGGLVQAGGSLRLSCAASGRIFSFNTMGWYRQAPGKEREFVATIRYSGGSTYADSVKGRFTISRDNAKNTVYLQMNSLKPEDTAVYYCAAAWWSYKFNRDFDYWGQGTQVTVSS
polyreactivity (PSR sort gate): low polyreactivity

QVQLVESGGGLVQAGGSLRLSCAASGRIFSGNAMGWYRQAPRKERELVAAISRGGSTDYADSVKGRFTISRDNAKNTVYLQMNSLKPEDTAVYYCSARVNGKRRRYDYWGQGTQVTVSS
polyreactivity (PSR sort gate): high polyreactivity

QVQLVESGGGLVQAGGSLRLSCAASGRIFSINALGWYRQAPGKEREFVATISDRGSTTSYADSVKGRFTISRDNAKNTVYLQMNSLKPEDTAVYYCAARSYYRYDYWGQGTQVTVSS
polyreactivity (PSR sort gate): high polyreactivity

QVQLVESGGGLVQAGGSLRLSCAASGRIFSIYAMGWYRQAPGKERDMVAASSFRGTSTYADSVKGRFTISRDNAKNTVYLQMNWLKPEDTAVYYCAVTGFDVLWPSLGGELDYWGQGTQVTVSS
polyreactivity (PSR sort gate): low polyreactivity

QVQLVESGGGLVQAGGSLRLSCAASGRIFSIYAMGWYRQAPGKERELVAAISKRGGSTSYADSVKGRFTISRDNAKNTVYLQMNSLKPEDTAVYYCNARGWIPARGWDDYYWGQGTQVTVSS
polyreactivity (PSR sort gate): high polyreactivity

QVQLVESGGGLVQAGGSLRLSCAASGRIFSKYAMGLYRQAPEKERELVAAISGTGGSTYYADSVKGRFTISRDNSKNTVYLHMNSLKTEDTAVYYCAAEWYGRMYYWGQGTQVTVSS
polyreactivity (PSR sort gate): high polyreactivity

QVQLVESGGGLVQAGGSLRLSCAASGRIFSLNAMGWYRQAPGKERELVAAISKRGGSTYYADSVKGRFTISRDNAKNTVYLQMNSLKPEDTAVYYCNKLGSLSGRYDYWGQGTQVTVSS
polyreactivity (PSR sort gate): high polyreactivity

QVQLVESGGGLVQAGGSLRLSCAASGRIFSLYAMGWYRQAPGKEREFVAAISKSSGGTYYADSVKGRFTISRDNAKNTVYLQMNSLKPKDTAVYYCNARFVIGWVRKLDYWGQGTQVTVSS
polyreactivity (PSR sort gate): high polyreactivity

QVQLVESGGGLVQAGGSLRLSCAASGRIFSLYAMGWYRQAPGKERELVAAISKRGGSTYYADSVKGRFTISRDNAKNTVYLQMNSLKPEDTAVYYCATQLPFRKPWHDYWGQGTQVTVSS
polyreactivity (PSR sort gate): high polyreactivity

QVQLVESGGGLVQAGGSLRLSCAASGRIFSLYAMGWYRQAPGKERELVAAISSSGGRTYYADSVKGRFTISRDNAKNTVYLQMNSLKPEDTAVYYCADLVFSWWTFEYWGQGTQVTVSS
polyreactivity (PSR sort gate): high polyreactivity

QVQLVESGGGLVQAGGSLRLSCAASGRIFSNNAMGWYRQAPGKERELVAAISSSGSTYYADSVKGRFTISRDNAKNTVYLQMNSLKPEDTAVYYCAVVYGYPYLRGYVYGFNYWGQGTQVTVSS
polyreactivity (PSR sort gate): low polyreactivity

QVQLVESGGGLVQAGGSLRLSCAASGRIFSNNVMGWYIQAPGKERELVATISTDGRTNYADSVKGRFTISRDNAQNTVYLQMNSLKPEDTAVYFCAATGVTILLSSKSDYWGQGTQVTVSS
polyreactivity (PSR sort gate): low polyreactivity

QVQLVESGGGLVQAGGSLRLSCAASGRIFSPYAMGWYRQAPGKERELVAAITRNGGRTYYADSVKGRFTISRDNAKNTVYLQMNSLKPEDTAVYYCAAAKQSGNDYWGQGTQVTVSS
polyreactivity (PSR sort gate): low polyreactivity

QVQLVESGGGLVQAGGSLRLSCAASGRIFSRNAMGWYRQAPGKERELVAAITYSGGSTYYADSVKGRFTISRDNAKNTVYLQMNSLKPEDTAVYYCNADLYLQLPESYEYDYWGQGTQVTVSS
polyreactivity (PSR sort gate): high polyreactivity

QVQLVESGGGLVQAGGSLRLSCAASGRIFSRNAMGWYRQAPGKERELVAGISARGGRTYYADSVKGRFTISRDNAKNTVYLQMNSLKPEDTAVYYCNARTGYQDGTYGNDYWGQGTQVTVSS
polyreactivity (PSR sort gate): high polyreactivity

QVQLVESGGGLVQAGGSLRLSCAASGRIFSRNTMGWYRQAPGKEREFVAAISQSGGRTYYADSVKGRFTISRDNAKNTVYLQMNSLKPEDTAVYYCAAPSQSRGYYYWGQGTQVTVSS
polyreactivity (PSR sort gate): high polyreactivity

QVQLVESGGGLVQAGGSLRLSCAASGRIFSRYAMGWYRQAHGKERELVAAISWSGGSTYYADSVKGRFTISRDNAKNTVYLQMNSLKPEDTAVYYCAARRSYSYGSWGQGTQVTVSS
polyreactivity (PSR sort gate): high polyreactivity

QVQLVESGGGLVQAGGSLRLSCAASGRIFSRYAMGWYRQAPGKERELVAAINKSGGSTYYADSVKGRFTISRDNAKNTVYLQMNSLKPEDTAVYYCNAVYYWYKGDYWGQGSQVTVSS
polyreactivity (PSR sort gate): high polyreactivity

QVQLVESGGGLVQAGGSLRLSCAASGRIFSRYAMGWYRQAPGKERELVAAISRNGGSTYYADSVKGRFTISRDNAKNTVYLQMNSLKPEDTAVYYCNARGNQAVNGYEYWGQGTQVTVSS
polyreactivity (PSR sort gate): high polyreactivity

QVQLVESGGGLVQAGGSLRLSCAASGRIFSRYAMGWYRQAPGKERELVAAISWSGGSTYYADSVKGRFTISRDKAKNTVYLQMNSLKPEDTAVYYCAAKRQYTEYNYWGQGTQVTVSS
polyreactivity (PSR sort gate): high polyreactivity

QVQLVESGGGLVQAGGSLRLSCAASGRIFSRYAMGWYRQAPGKERELVAIISSGDSTNYADSVKGRFTISRDNAKNTVYLQMNSLKPEDTAVYYCAAANWGTPPYDDWGQGTQVTVSS
polyreactivity (PSR sort gate): low polyreactivity

QVQLVESGGGLVQAGGSLRLSCAASGRIFSSNVMGWYRQAPGKERELVAAITVTGGSTYYAYSVKGRFTISRDNAKYTVYLLMNSLNPEDTAVYFCAARVKGRFPYDYWGQGSQVTVSS
polyreactivity (PSR sort gate): low polyreactivity

QVQLVESGGGLVQAGGSLRLSCAASGRIFSSYAMGWYRQAPGKEREFVASITWRGGSTYYADSVKGRFTISRDNAKNTVYLQMNSLKPEDTAVYYCAADFYWKTYGYRTHEYDYWGQGTQVTVSS
polyreactivity (PSR sort gate): high polyreactivity

QVQLVESGGGLVQAGGSLRLSCAASGRIFSSYAMGWYRQAPGKERELVADITGRYGSTYYADSVKGRFTISRDNAKNTVYLQMNSLKPEDTAVYYCAASRFYFPRTFGGYPKLASYAYWGQVTQVTVSS
polyreactivity (PSR sort gate): low polyreactivity

QVQLVESGGGLVQAGGSLRLSCAASGRIFSSYAMGWYRQEPGKERELVAAISRSGARTYYADSVKGRFTISRDNAKNTVYLQMNSLKPEDTAVYYCAAVTVAGYDYWGQGTQVTVSS
polyreactivity (PSR sort gate): high polyreactivity

QVQLVESGGGLVQAGGSLRLSCAASGRIFSTYALGWYRQAPGKERELVAAISYSGASTYYADSVKGRFTISRDNAKNTVYLQIKSMKPEDTAVYYCAKATYPHEYDYWGQGTQVTVSS
polyreactivity (PSR sort gate): low polyreactivity

QVQLVESGGGLVQAGGSLRLSCAASGRIFSTYAMGWYRQAPGKERELVAAISWRGGNTYYADSVKGRFTISRDNAKNTVYLQMNSLKPEDTAVFYCAAASFAYPYRNSALDYWGQGTQVTVSS
polyreactivity (PSR sort gate): high polyreactivity

QVQLVESGGGLVQAGGSLRLSCAASGRIFSTYAMGWYRQAPGKERELVAAISYSGTTTYYADSVKGRFTISRDNAKNTVYLQMNSLKPEDTAVYYCAAYRYSTWSYGRDYYWGQGTQVTVSS
polyreactivity (PSR sort gate): high polyreactivity

QVQLVESGGGLVQAGGSLRLSCAASGRIFSTYTMGWYRQAPGKERELVASISWSGVRTRYADSVKGRFTISRDNAQNTVYLQMNSLKPEDTAVYYCAAVVPYYYRSPSNHMGYWGQGTQVTVSS
polyreactivity (PSR sort gate): high polyreactivity

QVQLVESGGGLVQAGGSLRLSCAASGRIFSTYVMGWYRQAPGKERELVAAIRNRGGSTYYADSVKGRFTISRDNAKNTVYLQMNSLKPEDTAVYYCAAEYSYRYRVSMDYWGQGTQVTVSS
polyreactivity (PSR sort gate): high polyreactivity

QVQLVESGGGLVQAGGSLRLSCAASGRIFSVNAMGWYRQAPGKERELVASISWSGGSTYYADSVKGRFTISRDNAKNTVYLQMNSLKPEDTAVYYCNARIESYWLDFDYWGQGTQVTVSS
polyreactivity (PSR sort gate): low polyreactivity

QVQLVESGGGLVQAGGSLRLSCAASGRIFSVNAMVWYRPAPGKERELVAAITGSGTITYYADSVKGRFTISRDNAKNTVYLQMSSLKPEDTAVYYCAARPVLRYYAGYYYWGQGTQVTVSS
polyreactivity (PSR sort gate): high polyreactivity

QVQLVESGGGLVQAGGSLRLSCAASGRIFSVYTMGWYRQAPGKEREFVASITGSAGSTYYADSVKGRFTISRDNAKNTVYLQMNSLKPEDTAVYYCAKRITAWYTYYGYWGQGTQVTVSS
polyreactivity (PSR sort gate): low polyreactivity

QVQLVESGGGLVQAGGSLRLSCAASGRIFSVYTMGWYRQAPGKERELVATISSGGRTNYADSVKGRFTISRDNAKNTVYLQMNSLKPEDTAVYYCAAVPYGFVGYDDYWGQGTQVTVSS
polyreactivity (PSR sort gate): low polyreactivity

QVQLVESGGGLVQAGGSLRLSCAASGRIFSVYTMRWYRQAPGKERELVATISSGGRTNYADSVKGRFTISRDNAKNTVYLQMNSLKPEDTAVYYCAADWVYPPGLKDSVHFGEYDYWGQGTQVTVSS
polyreactivity (PSR sort gate): low polyreactivity

QVQLVESGGGLVQAGGSLRLSCAASGRIFSWNAMGWYRQAPGKERELVAAITIGGGTYYADSVKGRFTISRDNAKNTVYLQMNSLKPEDTAVYYCNAYRRKLWYPTGMYWGQGTQVTVSS
polyreactivity (PSR sort gate): high polyreactivity

QVQLVESGGGLVQAGGSLRLSCAASGRIFSWNAMGWYRQAPGKERELVARITWNGGRTYYADSVKGRFTISRDNAKNTVYLQMNSLKPEDTAVYYCNAERFDLTYNYWGQGTQVTVSS
polyreactivity (PSR sort gate): high polyreactivity

QVQLVESGGGLVQAGGSLRLSCAASGRIFSWNTMGWYRQAPGKERELVAAITQSGSTYYADSVKGRFTISRDNAKNTVYLQMNSLKPEDTAVYYCAAVVGRRLYPRYDYWGQGTQVTVSS
polyreactivity (PSR sort gate): high polyreactivity

QVQLVESGGGLVQAGGSLRLSCAASGRIFSYKAMGWYRQAPGKERELVAAISFSTTSTYYADSVKGRFTISRDNAKNTVYLQMYSLKPEDTAVYYCNTPGLPIDSEYDYWGQGTQVTVSS
polyreactivity (PSR sort gate): low polyreactivity

QVQLVESGGGLVQAGGSLRLSCAASGRIFSYNAMGWYRQAPGKERELDAAISWSTGSTFYADSVKGRFTISRDNAKNTVYLQMNSLKPEDTAVYYCAREYYYRRGFFLRGYWGQGTQVTVSS
polyreactivity (PSR sort gate): high polyreactivity

QVQLVESGGGLVQAGGSLRLSCAASGRIFSYNAMGWYRQAPGKERELVAAISSDGSTYYADSVKGRFTISRDNAKNTVYLQMNRLKPEDTAVYYCAAYPRVNGNIHSTGDYWGQGTQVTVSS
polyreactivity (PSR sort gate): low polyreactivity

QVQLVESGGGLVQAGGSLRLSCAASGRIFSYNTMGWYRQAPGKERELVAAISGGGTTYYADSVKGRFTISRDNAKNTVYLQMNSLKPEDTAVYYCNAEYYGYSWRRTKYGYWGQGTQVTVSS
polyreactivity (PSR sort gate): high polyreactivity
